Substitutions are numbered along the chain they refer to.
T1: CCL22_HUMAN (human, UniProt O00626 25-93)
T1 chain: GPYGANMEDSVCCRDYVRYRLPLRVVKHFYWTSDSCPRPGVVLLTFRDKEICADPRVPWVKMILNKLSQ

T2: CCL4 (human, UniProt P13236 24-92)
T2 chain: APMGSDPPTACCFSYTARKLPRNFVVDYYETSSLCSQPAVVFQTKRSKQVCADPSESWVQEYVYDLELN

T3: CCL18_HUMAN (human, UniProt P55774 21-89)
T3 chain: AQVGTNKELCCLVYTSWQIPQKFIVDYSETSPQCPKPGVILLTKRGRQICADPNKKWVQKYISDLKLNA

T4: CCL3_HUMAN (human, UniProt P10147 24-92)
T4 chain: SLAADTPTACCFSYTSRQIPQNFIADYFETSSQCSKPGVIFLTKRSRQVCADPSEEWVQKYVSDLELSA

B1: P985_AMBPA (other)
chain: DEESEELGASTDVDYEELDANCTCPAPALTSTRNNKHYPLGCIYNCSSYNCTIPDGTPCYVLTLGEVKEHLQIGSTVPNCTCGLCRNGTCVSNGTVEECFAVEEIEET
B2: P672_RHIPU (other)
chain: VCEVSEQEGVGEDNATEDEDYEDFFKPVTCYFANSTVGPLRPPNCTVVCTNNTAWWNDTKSDGGHCYSEYRPEKRTHSREIYNCTIGVCGNGTCIANHTYADCW
B3: P546_AMBCA (other)
chain: ENTQQEEEDYDYGTDTCPFPVLANKTNKAKFVGCHQKCNGGDQKLTDGTACYVVERKVWDRMTPMLWYSCPLGECKNGVCEDLRKKEECRKGNGEEK
B4: P974_AMBCA (other)
chain: B3 chain with E8Q, S69E, E88D
B5: CCL4_HUMAN (ligand)
chain: T2 chain
B6: CCL15_HUMAN (ligand)
chain: QFTNDAETELMMSKLPLENPVVLNSFHFAADCCTSYISQSIPCSLMKSYFETSSECSKPGVIFLTKKGRQVCAKPSGPGVQDCMKKLKPYSI
B7: CCL19_HUMAN (ligand)
chain: GTNDAEDCCLSVTQKPIPGYIVRNFHYLLIKDGCRVPAVVFTTLRGRQLCAPPDQPWVERIIQRLQRTSAKMKRRSS
B8: CCL5_HUMAN (ligand)
chain: SPYSSDTTPCCFAYIARPLPRAHIKEYFYTSGKCSNPAVVFVTRKNRQVCANPEKKWVREYINSLEMS
B9: CCL17_HUMAN (ligand)
chain: ARGTNVGRECCLEYFKGAIPLRKLKTWYQTSEDCSRDAIVFVTVQGRAICSDPNNKRVKNAVKYLQSLERS
B10: CCL8_HUMAN (ligand)
chain: QPDSVSIPITCCFNVINRKIPIQRLESYTRITNIQCPKEAVIFKTKRGKEVCADPKERWVRDSMKHLDQIFQNLKP
B11: CCL11_HUMAN (ligand)
chain: not shown
B12: CCL1_HUMAN (ligand)
chain: KSMQVPFSRCCFSFAEQEIPLRAILCYRNTSSICSNEGLIFKLKRGKEACALDTVGWVQRHRKMLRHCPSKRK
B13: P1181_AMBMA (other)
chain: EEREDDNDYGGGCPFVVLGNGTHAKPAGCSHLCNGAPETLDNIECYNVTEEVAKRMTPDIPYTCWLGWCSKGECKRDNRTEVCYRGSERE
B14: P1183_AMBTR (other)
chain: EAPKDDFEYDGGCPFVVLDNGTHVKPAGCSHLCNGAPETLDNIECYNVTEEVAKRMTPGIPYACWLGWCSKGECKRDNRTEVCYRGSEEE
B15: P1180_AMBTR (other)
chain: EEPKDGYDYTEGCPFVVLGNGTHAKPAGCSHLCNGAPETLDDNMECYNVTEEVAKRMTPDIPYTCWLGWCSKGECKRDNRTEVCYRGSERE
B16: P467_RHIPU (other)
chain: AEKSLDSDSSGEDYELWTQGCPFLVAENRTGFGTTVSCQHNCNGAIEKVPEGEPCYTIGEDGLGRMKLNLPYNCSLGECSGGVCVPNGRSDVCFKRTWEENNKAMA
B17: P1182_AMBMA (other)
chain: EPKDDNDYGGGCPFVVLGNGTHAKPAGCSHLCNGAPETLDNIECYNVTEEVAKRMTPGIPYACWLGWCNKGECKRGNRTEVCYRGSEEE
B18: P983_AMBCA (other)
chain: EDTGTEDDFDYGNTGCPFPVLGNYKSNMTKPVGCKNKCGSGYEVLNDTTPCYVIDQKVFNNMVPLRQYSKCPLGFCENGECKPNDQAEDCYKGREEQK
B19: P983_AMBPA (other)
chain: B18 chain

biological target: CCL24_HUMAN; test: BLI

Binder | Kd [nM]
B1 | 40.8

biological target: CCL23_HUMAN; test: BLI

Binder | Kd [nM]
B2 | 10

Biological target: T1, CCL22_HUMAN
Test: BLI

Binder | Kd [nM]
B3 | 27
B4 | 16.8

biological target: EVASIN1; test: -; previously described evasin

Binder | Kd [nM]
B5 | 0.5

biological target: EVASIN4; test: -; previously described evasin

Binder | Kd [nM]
B6 | 2.31
B7 | 0.14
B8 | 0.09
B9 | 0.61
B10 | 0.25
B11 | 0.34
B12 | 0.2

Biological target: T2, CCL4
Test: BLI

Binder | Kd [nM]
B13 | 53
B14 | 78.3
B15 | 66
B3 | 26.6
B4 | 30.2
B16 | 13.6
B17 | 92.4
B1 | 7.47
B18 | 8.03

biological target: B11; test: BLI

Binder | Kd [nM]
B13 | 19.5
B14 | 8.47
B15 | 32.5
B3 | 8.7
B4 | 17
B16 | 1.4
B17 | 56
B1 | 8
B18 | 18

Biological target: B8
Test: BLI

Binder | Kd [nM]
B16 | 7.67
B1 | 3.52

Biological target: B12
Test: BLI

Binder | Kd [nM]
B3 | 160
B4 | 70.5
B16 | 53.4
B17 | 74
B1 | 8.32

Biological target: T3, CCL18_HUMAN
Test: BLI

Binder | Kd [nM]
B13 | 10
B15 | 5.78
B3 | 16
B4 | 0.683
B16 | 16.6
B1 | 431

Biological target: B10
Test: BLI

Binder | Kd [nM]
B13 | 119
B14 | 1130
B15 | 3.63
B2 | 3.7
B3 | 1.29
B4 | 2.58
B16 | 2.85
B17 | 28.2
B1 | 6.53
B18 | 6.99

Biological target: B9
Test: BLI

Binder | Kd [nM]
B3 | 70
B4 | 70.6
B17 | 33.4

Biological target: T4, CCL3_HUMAN
Test: BLI

Binder | Kd [nM]
B13 | 3.29
B15 | 1.07
B2 | 2.6
B3 | 14.5
B4 | 7.97
B16 | 0.363
B17 | 9.46
B1 | 8.9
B18 | 3.51

Biological target: B6
Test: BLI

Binder | Kd [nM]
B2 | 31.5

biological target: CCL2_HUMAN (human, UniProt P13500 24-99); test: BLI
Sequence (P13500 24-99): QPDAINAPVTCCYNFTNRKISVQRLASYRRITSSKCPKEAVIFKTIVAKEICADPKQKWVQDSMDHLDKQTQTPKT

Binder | Kd [nM]
B13 | 2.21
B14 | 11.9
B15 | 53
B2 | 9.09
B3 | 83
B4 | 93
B16 | 0.001
B17 | 5.39
B1 | 16.8
B18 | 13.9

biological target: CCL4L1_HUMAN; test: BLI

Binder | Kd [nM]
B13 | 13.5
B14 | 48.4
B15 | 19.5
B3 | 8.87
B4 | 23.2
B16 | 4.72
B1 | 20.6
B19 | 2.86

biological target: CCL14_HUMAN; test: BLI

Binder | Kd [nM]
B13 | 47
B15 | 4.4
B2 | 5.5
B3 | 28.2
B4 | 49.1
B16 | 4.13
B19 | 81

biological target: CCL3L1_HUMAN; test: BLI

Binder | Kd [nM]
B13 | 100
B14 | 110
B15 | 2.19
B2 | 2.7
B3 | 14.7
B4 | 13.1
B16 | 0.524
B17 | 63.4
B1 | 45.8
B19 | 2.08

biological target: CCL16_HUMAN; test: BLI

Binder | Kd [nM]
B2 | 3.29
B3 | 6.67
B4 | 11
B16 | 14.1
B1 | 44.8

biological target: CCL7_HUMAN; test: BLI

Binder | Kd [nM]
B13 | 35
B14 | 5.38
B15 | 98
B2 | 16.1
B3 | 90
B4 | 41.2
B16 | 2.15
B17 | 29.2
B1 | 61.4
B19 | 32.1

biological target: CCL13_HUMAN; test: BLI

Binder | Kd [nM]
B13 | 19
B14 | 5.67
B15 | 8.96
B3 | 13.1
B4 | 22.9
B16 | 2.56
B17 | 50
B1 | 89
B19 | 17.3

Reference: patent publication US20220175942A1 (published 2022)
